According to publication doi:10.1101/2020.10.20.346569 (bioRxiv, 2020):
Read-outs that look alike come from different tables or passages of the source. Values belong to the binder of their own block, whether it stands above or below them.

Columns and labels:
GST-GSK3β [1] = molecular target: T1, GST-GSK3β (UniProt P49841 1-420); test: pull-down
GST-GSK3β [2] = molecular target: T1, GST-GSK3β; test: pull-down; remark: listed apart in the source

T1 sequence (P49841 whole entry): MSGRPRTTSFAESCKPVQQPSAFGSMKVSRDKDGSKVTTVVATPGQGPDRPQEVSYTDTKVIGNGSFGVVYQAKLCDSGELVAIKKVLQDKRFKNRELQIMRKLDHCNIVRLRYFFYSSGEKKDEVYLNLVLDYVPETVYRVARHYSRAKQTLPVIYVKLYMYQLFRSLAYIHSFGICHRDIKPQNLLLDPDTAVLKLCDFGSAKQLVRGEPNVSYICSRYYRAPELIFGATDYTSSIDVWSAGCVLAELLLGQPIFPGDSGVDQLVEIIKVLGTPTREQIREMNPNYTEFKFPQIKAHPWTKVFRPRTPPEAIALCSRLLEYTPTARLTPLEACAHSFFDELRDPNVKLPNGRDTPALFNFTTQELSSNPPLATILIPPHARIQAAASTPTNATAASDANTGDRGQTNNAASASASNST

binding result (GST-GSK3β [1]): binds
B1: peptide e2-I (peptide)
peptide: RLLFQNLWKPRL

binding result (GST-GSK3β [2]): binds
B2: His-eIF4E2 (natural protein, UniProt O60573 1-245, looked up)
chain: MNNKFDALKDDDSGDHDQNEENSTQKDGEKEKTERDKNQSSSKRKAVVPGPAEHPLQYNYTFWYSRRTPGRPTSSQSYEQNIKQIGTFASVEQFWRFYSHMVRPGDLTGHSDFHLFKEGIKPMWEDDANKNGGKWIIRLRKGLASRCWENLILAMLGEQFMVGEEICGAVVSVRFQEDIISIWNKTASDQATTARIRDTLRRVLNLPPNTIMEYKTHTDSIKMPGRLGPQRLLFQNLWKPRLNVP
